Experimental data taken from article PMC8517123, “Functional Interaction Between Caveolin 1 and LRRC8-Mediated Volume-Regulated Anion Channel” (Frontiers in Physiology, 2021).

Biological target: T1, Leucine-rich repeat-containing 8A (human (endogenous in HEK 293), UniProt Q8IWT6 1-810)
T1 construct: LRRC8A, essential subunit of the volume-regulated anion channel (VRAC), endogenous in HEK 293 cells; Endogenous protein in lysate; in cells it is part of heteromeric LRRC8 channels, and other subunits may be present in the precipitate; also called LRRC8A; source: endogenous, HEK 293 lysate (1% Triton X-100)
T1 sequence (looked up): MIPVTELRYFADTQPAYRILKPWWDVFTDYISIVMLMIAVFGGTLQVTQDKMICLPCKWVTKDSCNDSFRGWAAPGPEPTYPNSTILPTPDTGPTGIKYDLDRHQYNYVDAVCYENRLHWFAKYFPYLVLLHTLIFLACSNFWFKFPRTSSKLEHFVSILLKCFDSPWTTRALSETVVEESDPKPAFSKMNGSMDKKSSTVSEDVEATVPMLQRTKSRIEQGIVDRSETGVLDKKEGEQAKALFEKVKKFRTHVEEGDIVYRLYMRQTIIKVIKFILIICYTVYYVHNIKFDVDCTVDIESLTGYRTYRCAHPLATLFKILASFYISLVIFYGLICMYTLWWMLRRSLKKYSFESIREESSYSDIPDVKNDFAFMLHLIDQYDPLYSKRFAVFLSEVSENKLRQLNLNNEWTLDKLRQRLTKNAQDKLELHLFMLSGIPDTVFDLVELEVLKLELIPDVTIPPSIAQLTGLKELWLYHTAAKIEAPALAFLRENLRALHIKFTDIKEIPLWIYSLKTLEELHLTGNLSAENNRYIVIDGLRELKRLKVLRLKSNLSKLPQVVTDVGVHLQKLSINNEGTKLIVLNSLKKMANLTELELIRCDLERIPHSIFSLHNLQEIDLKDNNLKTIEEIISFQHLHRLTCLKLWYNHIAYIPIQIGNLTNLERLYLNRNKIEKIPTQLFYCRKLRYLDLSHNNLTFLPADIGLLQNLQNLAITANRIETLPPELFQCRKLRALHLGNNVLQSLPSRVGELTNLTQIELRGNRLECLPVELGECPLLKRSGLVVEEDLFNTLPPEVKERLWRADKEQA
Test: co-IP; endogenous proteins; HEK 293 cells exposed to isotonic (300 mOsm/Kg) or hypotonic (255 mOsm/Kg) solution for 7 min at 37°C; lysis in 1% Triton X-100; 100-500 μg protein with 2-4 μg anti-Cav1 or anti-LRRC8A antibody at 4°C overnight, protein A sepharose; western blot
Conditions: partners not purified

B1: Caveolin 1 (natural protein, human (endogenous in HEK 293), UniProt Q03135 1-178, looked up)
chain: MSGGKYVDSEGHLYTVPIREQGNIYKPNNKAMADELSEKQVYDAHTKEIDLVNRDPKHLNDDVVKIDFEDVIAEPEGTHSFDGIWKASFTTFTVTKYWFYRLLSALFGIPMALIWGIYFAILSFLHIWAVVPCIKSFLIEIQCISRVYSIYVHTVCDPLFEAVGKIFSNVRINLQKEI
notes: Caveolin 1, endogenous in HEK 293 cells; also called Cav1; source: endogenous, HEK 293 lysate (1% Triton X-100)
For B1, the “LRRC8A/Cav1 ratio, hypotonic vs. isotonic (densitometry of co-IP)” value was 2.2 ratio.
